Data: patent publication US20200407467

How the values were obtained:
[1] = molecular target: T1, ZNF469 peptide 811-900 (human library), Q96JG9
T1 chain: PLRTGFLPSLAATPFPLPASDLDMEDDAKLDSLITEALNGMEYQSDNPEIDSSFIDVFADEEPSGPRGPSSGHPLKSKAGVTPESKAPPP

[2] = molecular target: T2, HUWE1 peptide 2291-2347 (mouse library), Q7TMY8
T2 chain: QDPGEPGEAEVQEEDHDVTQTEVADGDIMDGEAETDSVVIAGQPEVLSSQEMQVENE

[3] = molecular target: T3, HMGXB4 peptide 226-315 (human library), Q9UGU5
T3 chain: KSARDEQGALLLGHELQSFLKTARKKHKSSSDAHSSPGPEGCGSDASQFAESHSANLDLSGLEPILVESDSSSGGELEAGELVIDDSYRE

[4] = molecular target: T4, HUWE1 peptide 2341-2430 (human library), Q7Z6Z7
T4 chain: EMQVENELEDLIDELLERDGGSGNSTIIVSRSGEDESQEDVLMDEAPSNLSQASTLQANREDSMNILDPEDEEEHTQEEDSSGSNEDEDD

[5] = molecular target: T5, HUWE1 peptide 2296-2485 (human library), Q7Z6Z7
T5 chain: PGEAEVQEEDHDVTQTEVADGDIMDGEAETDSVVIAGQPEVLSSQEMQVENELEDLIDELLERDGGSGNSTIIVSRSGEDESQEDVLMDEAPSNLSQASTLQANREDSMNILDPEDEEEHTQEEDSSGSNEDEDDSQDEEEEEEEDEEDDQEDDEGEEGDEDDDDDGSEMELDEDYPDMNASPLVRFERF

[6] = molecular target: T6, Hmcn2 peptide 1576-1665 (human library), Q8NDA2
T6 chain: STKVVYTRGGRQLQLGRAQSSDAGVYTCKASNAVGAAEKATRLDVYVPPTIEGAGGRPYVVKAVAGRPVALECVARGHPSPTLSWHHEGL

[7] = molecular target: T7, IL1B peptide 74-130 (mouse library)
T7 chain: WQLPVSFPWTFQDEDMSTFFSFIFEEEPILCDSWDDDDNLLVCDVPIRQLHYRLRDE

[8] = molecular target: T8, GSDMD peptide 222-278 (mouse library)
T8 chain: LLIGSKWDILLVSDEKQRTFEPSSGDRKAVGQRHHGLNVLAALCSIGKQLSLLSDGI

[9] = molecular target: Gasdermin-D (peptides of the human library)
[10] = molecular target: HECT, UBA and WWE Domain Containing E3 Ubiquitin Protein Ligase 1 (HUWE1), endogenous in THP-1 cells, Q7Z6Z7
[11] = molecular target: unmapped_NM peptide 91-180 (human library)
[12] = molecular target: LOC100287737 peptide 496-585 (human library)
[13] = molecular target: T9, IL1B peptide 0-56 (mouse library)
T9 chain: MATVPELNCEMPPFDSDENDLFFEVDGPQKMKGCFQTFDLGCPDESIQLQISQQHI

[14] = molecular target: T10, Znf462 peptide 1-90 (human library), Q96JM2
T10 chain: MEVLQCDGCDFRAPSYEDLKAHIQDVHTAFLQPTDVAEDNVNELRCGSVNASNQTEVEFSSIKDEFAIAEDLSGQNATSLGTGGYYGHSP

[15] = molecular target: T11, BSN peptide 631-720 (human library), Q9UPA5
T11 chain: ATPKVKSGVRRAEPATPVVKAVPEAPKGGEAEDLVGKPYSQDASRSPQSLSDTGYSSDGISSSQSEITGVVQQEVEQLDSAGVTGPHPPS

[16] = molecular target: T12, hoxa2 peptide 271-360 (human library), O43364
T12 chain: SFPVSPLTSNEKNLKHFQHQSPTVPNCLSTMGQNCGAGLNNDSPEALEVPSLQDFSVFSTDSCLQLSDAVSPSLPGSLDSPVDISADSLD

[17] = molecular target: T13, HUWE1 peptide 2251-2340 (human library), Q7Z6Z7
T13 chain: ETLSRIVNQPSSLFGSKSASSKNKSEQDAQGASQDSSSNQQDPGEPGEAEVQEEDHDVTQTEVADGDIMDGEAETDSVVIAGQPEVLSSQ

[18] = molecular target: T14, C14orf93 peptide 91-180 (human library), Q9H972
T14 chain: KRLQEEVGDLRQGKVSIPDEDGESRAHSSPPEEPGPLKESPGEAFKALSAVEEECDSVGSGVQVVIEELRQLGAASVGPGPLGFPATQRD

[19] = molecular target: T15, UHRF1BP1L peptide 991-1080 (human library), A0JNW5
T15 chain: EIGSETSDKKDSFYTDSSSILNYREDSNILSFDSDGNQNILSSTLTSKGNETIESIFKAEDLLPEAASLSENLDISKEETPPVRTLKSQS

[20] = molecular target: T16, IL1B peptide 75-131 (mouse library)
T16 chain: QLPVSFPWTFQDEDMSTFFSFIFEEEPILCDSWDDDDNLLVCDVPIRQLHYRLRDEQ

[21] = molecular target: T7-SEPARATE PreScission-cleavable clone, monovalent display (T7Select1-2b)
[22] = molecular target: T17, Hyls1 peptide 1-90 (human library), Q96M11
T17 chain: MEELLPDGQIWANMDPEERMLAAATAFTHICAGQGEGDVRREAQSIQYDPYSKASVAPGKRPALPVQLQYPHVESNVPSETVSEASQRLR

[23] = molecular target: T18, LYST peptide 1171-1260 (human library), Q99698
T18 chain: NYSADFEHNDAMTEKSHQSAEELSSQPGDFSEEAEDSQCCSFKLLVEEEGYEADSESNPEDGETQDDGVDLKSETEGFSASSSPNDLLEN

[24] = molecular target: T19, ANAPC1 peptide 1-90 (human library), Q9H1A4
T19 chain: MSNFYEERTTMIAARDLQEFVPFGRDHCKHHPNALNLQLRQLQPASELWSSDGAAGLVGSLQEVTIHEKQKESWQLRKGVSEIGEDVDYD

[25] = molecular target: T20, Efs peptide 181-270 (human library), O43281
T20 chain: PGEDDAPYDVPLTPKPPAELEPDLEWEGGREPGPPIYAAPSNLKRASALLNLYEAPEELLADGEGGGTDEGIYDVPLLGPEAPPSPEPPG

[26] = molecular target: T21, TNS3 peptide 451-540 (human library), Q68CZ2
T21 chain: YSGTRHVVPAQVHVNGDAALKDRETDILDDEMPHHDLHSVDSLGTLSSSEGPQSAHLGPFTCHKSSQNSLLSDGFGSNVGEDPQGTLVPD

[27] = molecular target: MAP3K14 peptide 496-585 (human library), Q99558
[28] = molecular target: T22, ERO1L peptide 91-180 (human library), Q96HE7
T22 chain: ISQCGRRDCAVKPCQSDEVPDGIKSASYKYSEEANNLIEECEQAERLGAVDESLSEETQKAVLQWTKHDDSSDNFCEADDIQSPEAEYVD

[29] = molecular target: T23, HUWE1 peptide 2328-2384 (mouse library), Q7TMY8
T23 chain: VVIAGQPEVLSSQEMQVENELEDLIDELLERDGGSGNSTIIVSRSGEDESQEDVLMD

[30] = molecular target: T24, GSDMD peptide 259-315 (mouse library)
T24 chain: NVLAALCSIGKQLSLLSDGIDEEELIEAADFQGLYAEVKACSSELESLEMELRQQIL

B1: Caspase-1 (recombinant) (protein)
chain: NPAMPTSSGSEGNVKLCSLEEAQRIWKQKSAEIYPIMDKSSRTRLALIICNEEFDSIPRRTGAEVDITGMTMLLQNLGYSVDVKKNLTASDMTTELEAFAHRPEHKTSDSTFLVFMSHGIREGICGKKHSEQVPDILQLNAIFNMLNTKNCPSLKDKPKVIIIQACRGDSPGVVWFKDSVGVSGNLSLPTTEEFEDDAIKKAHIEKDFIAFCSSTPDNVSWRHPTMGSVFIGRLIEHMQEYACSCDVEEIFRKVRFSFEQPDGRAQMPTTERVTLTRCFYLFPGH
[1]
  Caspase1 fold change: 16.8 fold
[2]
  Caspase1 fold change: 6.13 fold
[3]
  Caspase1 fold change: 16.5 fold
[4]
  Caspase1 fold change: 16.6 fold
[5]
  Caspase1 fold change: 22.7 fold
[6]
  Caspase1 fold change: 16.3 fold
[7]
  Caspase1 fold change: 13.2 fold
[8]
  Caspase1 fold change: 4.23 fold
[9]
  enrichment in SEPARATE (human library digest): did not score in the assay
[10]
  Western blot, cleavage of endogenous HUWE1 in THP-1 lysate: robust cleavage of endogenous HUWE1
[11]
  Caspase1 fold change: 18.7 fold
[12]
  Caspase1 fold change: 16.4 fold
[13]
  Caspase1 fold change: 8.1 fold
[14]
  Caspase1 fold change: 19.1 fold
[15]
  Caspase1 fold change: 18.8 fold
[16]
  Caspase1 fold change: 17.1 fold
[17]
  Caspase1 fold change: 17.6 fold
[18]
  Caspase1 fold change: 18.2 fold
[19]
  Caspase1 fold change: 16.4 fold
[20]
  Caspase1 fold change: 8.8 fold
[21]
  enrichment of the PreScission digestible clone spiked into the human library: no enrichment is observed when digested with Caspase-1
[22]
  Caspase1 fold change: 19.7 fold
[23]
  Caspase1 fold change: 21 fold
[24]
  Caspase1 fold change: 16.4 fold
[25]
  Caspase1 fold change: 21.1 fold
[26]
  Caspase1 fold change: 18.7 fold
[27]
  Caspase1 fold change: 16.5 fold
[28]
  Caspase1 fold change: 19.8 fold
[29]
  Caspase1 fold change: 23.1 fold
[30]
  Caspase1 fold change: 6.78 fold
